Experiment [1] concerns the target T1, human Bfl-1 a.a. 1-153 (C4S) with C-terminal avi-6his tag (human).
T1 construct: also called A1/Bfl-1
T1 chain: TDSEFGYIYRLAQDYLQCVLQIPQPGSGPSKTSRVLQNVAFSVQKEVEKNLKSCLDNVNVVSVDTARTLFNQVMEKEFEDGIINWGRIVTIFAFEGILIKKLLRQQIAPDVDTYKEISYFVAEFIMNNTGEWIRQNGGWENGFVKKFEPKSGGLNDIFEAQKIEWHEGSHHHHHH
As to the kind of experiment: BLI, biotinylated target on streptavidin sensor, range of analyte concentrations.

The target of experiment [2] is T2, human Bcl-2 a.a. 1-207 with C-terminal avi-6his tag (human, UniProt P10415 2-207). The experiment is described as above.
Experiment [3] deals with T3, human Bcl-XL a.a. 1-205 with C-terminal avi-6his tag (human, UniProt Q07817 2-206).
T3 construct: also called BCL2L1
The experiment is described as above.
Target sequence in this assay (Q07817 other isoform, or with tags, fused parts or gaps limits assumed): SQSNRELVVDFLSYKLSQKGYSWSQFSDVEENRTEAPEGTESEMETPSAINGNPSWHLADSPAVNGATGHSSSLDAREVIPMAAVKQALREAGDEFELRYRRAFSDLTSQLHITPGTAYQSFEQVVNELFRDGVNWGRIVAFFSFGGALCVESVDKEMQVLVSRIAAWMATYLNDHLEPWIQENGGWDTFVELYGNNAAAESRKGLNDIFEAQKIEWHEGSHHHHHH

The target of experiment [4] is T4, human Mcl-1 a.a. 172-327 with C-terminal avi-6his tag (human).
T4 chain: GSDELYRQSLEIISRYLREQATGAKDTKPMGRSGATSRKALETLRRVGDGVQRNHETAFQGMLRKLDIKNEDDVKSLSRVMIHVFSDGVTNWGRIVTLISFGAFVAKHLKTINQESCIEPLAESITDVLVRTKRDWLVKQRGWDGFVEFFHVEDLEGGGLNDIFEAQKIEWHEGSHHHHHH
The description is as above.

Experiment [5] deals with T5, human Bcl-B a.a. 11-175 with C-terminal avi-6his tag (human).
T5 construct: also called BCL2L10
T5 chain: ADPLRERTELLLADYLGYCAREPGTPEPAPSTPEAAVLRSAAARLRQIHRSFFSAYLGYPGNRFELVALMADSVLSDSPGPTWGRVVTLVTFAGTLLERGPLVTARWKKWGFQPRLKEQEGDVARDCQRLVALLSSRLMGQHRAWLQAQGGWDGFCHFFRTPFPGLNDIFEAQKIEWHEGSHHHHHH
Described as above.

Experiment [6] deals with T6, human Bcl-w a.a. 1-182 with C-terminal avi-6his tag (human, UniProt Q92843 1-182).
T6 construct: range 1-182; also called BCL2L2
T6 sequence: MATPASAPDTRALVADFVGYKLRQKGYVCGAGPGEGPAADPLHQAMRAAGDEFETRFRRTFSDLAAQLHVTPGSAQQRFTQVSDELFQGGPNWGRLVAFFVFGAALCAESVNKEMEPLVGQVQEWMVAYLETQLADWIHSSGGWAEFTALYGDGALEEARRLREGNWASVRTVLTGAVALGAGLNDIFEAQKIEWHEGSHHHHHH
The experiment is described as above.

Experiment [7] concerns the target T1, human Bfl-1 a.a. 1-153 (C4S) with …. As to the kind of experiment: ratio of the KD of the next tightest BCL2 protein to the KD of the target, BLI.
Experiment [8] has as its target T5, human Bcl-B a.a. 11-175 with C-terminal …. Described as above.
In experiment [9] the target is T1, human Bfl-1 a.a. 1-153 (C4S) with …. Description: yeast surface display titration (apparent KD).
Experiment [10] concerns the target T4, human Mcl-1 a.a. 172-327 with …. As to the kind of experiment: yeast surface display titration (apparent KD).
The target in experiment [11] is T2, human Bcl-2 a.a. 1-207 with C-terminal …. Description: yeast surface display titration (apparent KD).
The target of experiment [12] is T3, human Bcl-XL a.a. 1-205 with C-terminal …. As to the kind of experiment: yeast surface display titration (apparent KD).
Experiment [13] concerns the target T6, human Bcl-w a.a. 1-182 with C-terminal …. Description: yeast surface display titration (apparent KD).
The target of experiment [14] is T2, human Bcl-2 a.a. 1-207 with C-terminal …. Description: BLI at a single analyte concentration (50 nM, 600 s association, then buffer); biotinylated BCL2 protein on a streptavidin sensor.
The target in experiment [15] is T3, human Bcl-XL a.a. 1-205 with C-terminal …. The description is as above.
Experiment [16] deals with T4, human Mcl-1 a.a. 172-327 with …. Described as above.
In experiment [17] the target is T6, human Bcl-w a.a. 1-182 with C-terminal …. Described as above.
Experiment [18] has the same target. As to the kind of experiment: initial BLI screening (column 'Binds target?').
The target of experiment [19] is T7, Epstein-Barr virus BHRF1 a.a. 1-161 with C-terminal avi-6his tag (Epstein-Barr virus).
T7 construct: also called EBV BHRF1; BHRF1-biotin
T7 chain: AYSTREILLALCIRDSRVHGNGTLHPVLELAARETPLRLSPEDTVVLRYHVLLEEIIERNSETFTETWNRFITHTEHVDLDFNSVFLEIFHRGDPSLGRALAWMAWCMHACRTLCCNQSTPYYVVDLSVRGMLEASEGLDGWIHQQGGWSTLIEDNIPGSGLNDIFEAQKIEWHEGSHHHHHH
As to the kind of experiment: yeast surface display.

The target in experiment [20] is T7, Epstein-Barr virus BHRF1 a.a. 1-161 …. As to the kind of experiment: yeast display library, FACS sort at 100 nM BHRF1, deep sequencing.
Experiment [21] shares this target. As to the kind of experiment: yeast display library, FACS sort at 400 nM BHRF1, deep sequencing.

B1: F-CDP01 (designed binder)
chain: ADPKKVLDKAKDQAENRVRELKQKLEELYKEARKLDLTQEMRKKLQYAAIGAMLAAIGDILNAIMQAKQEADKLKKAGLVNSQQLDELKRRLEELKEEALRKAHDYGSEFYLKLEY
Take B1: the “apparent Kd (pooled screen)” value in [1] came to 2.6 nM. Also, the Kd was determined as 20 nM in experiment [2]; 9 nM in [3]; 4.6 nM in [4]; 210000 nM in experiment [5]; 590 nM in [6]. Moreover, the Specificity in experiment [7] came out at 1.8 fold.

B2: 10-ECM01 (designed binder)
chain: ADPKKILDKAKDQVENRVRELKQELERLYKEARKLDLTQEMRRKLHVRYIAAMLKAIAAILNAIAQAENEADKLKKAGLVNSQQLDELRRRLEELTEEAAQKAHDYGREFQLKLEYG
Turning to B2, the Kd in experiment [1] came out at 2380 nM; in experiment [2], 12500 nM; in experiment [3] it was 7800 nM; in experiment [4], 3650 nM; in experiment [5], 77 nM; in experiment [6], 19000 nM. Also, the Specificity in experiment [8] came out at 31 fold.

B3: BbpD04.3 (designed binder)
chain: ADWKKVLDKAKDIAENRVRELKQKLEEFYKEAMKLDLTQEMRRKLMLRWIAAMLMAIGDIFNAIRQAKQEADKLKKAGLVNSQQLDELKRRLEELKEEASRKARDYGREFQLKLEY
Take B3: the figures for the Kd in experiment [9] and in experiment [10] were 32 nM and 19 nM, respectively.

B4: BbpD04.1 (designed binder)
chain: ADWKKVLDKAKDIAENRVREIKQKLEEFYKEAMKLDLTQEMRRKLMLRWIAAMLMAIGDIFNAIRQAKQEADKLKKAGQVNSQLLDELKRRLEELKEEASRKCHDYGREFQLKLEY
In the case of B4, the Kd is 110 nM in experiment [11], 25 nM in experiment [12], 30 nM in [10] and 14 nM in experiment [13].

B5: F-ECM04 (designed binder)
chain: ADPKKVLDKAKDQAENRVRELKQKLEELYKEARKLDLTQEMRKKLEVAALGAVLAAHGDILNAIMQAKEEADKLKKAGLVNSQQLDELKRRLEELKEEALRKASDYGKEFHLKRRYG
With B5, the Kd in [1] worked out at 1.1 nM; in experiment [2] it was 100 nM; in [3], 540 nM; in [4], 255 nM; in experiment [5], 4000 nM; in experiment [6] it was 3800 nM. For the same molecule, the Specificity in experiment [7] was 91 fold.

B6: M-CDP02 (designed binder)
chain: ADPKKVLDKAKDQAENRVRELKQELEELYKEARKLDLTQEERRKLEESYIAAMLRAIGDIFNAIMQAKNEADKLKKAGLVNSQQLDELRRRLEELRKEASLKAEDYGREFQEKLEY
Take B6: the binding result in [14], in experiment [15], in experiment [16] and in experiment [17] was “binds” throughout.

B7: W-CDP01 (designed binder)
chain: DPKKVFDKAKDKAENQVRYLKQRLEELYKEARKKDLTQEQRRKLKEKYLAAKLAAILAAIGDAFNALAEARELHKQGKVNKQQLDELAKRLDRLAEEAIQKAEDYAREFAYKLEY
Regarding B7, the binding result in [18] was “binds”.

B8: Index 15 (designed binder)
chain: GNDRDQIEEYHRERMDEELDRAKKRLEELKKLWEKLDGDDLMKFFWTFKWIAESLKIIGDLFNRLLRTWEFAEALKKGIGFDEKKAEEAKERAYERAAEAAWKAAKLSREMREFLLKG
On to B8, for which the binding result in experiment [19] is “no binding”. For the same molecule, the Log2 enrichment ratio in experiment [20] was -2.77 log2; in experiment [21] it was -0.71 log2.

B9: W-CDP02 (designed binder)
chain: DPKKVLDKARDQALKRLEEMRKKLEESYKEARKKDLTQEERRKLEEKYAEAMKRAAEDIYNMIQQALKEAEKEKKAGQVNSQQLDKLREDLNNKLIAAALAAIGDAFNMAANLRT
Turning to B9, in experiment [18], the binding result is “binds”.

B10: Index 47 (designed binder)
chain: GWSADWIKDQAKELMLRAAEEMKKRADEEEKKFKYKQFTTEFLTKATMRWIALALMAIGDVFNVLMWALEWAKRMAKLNQYRKEELEKAKEEAKKLAEKAARRITEIGREAEQKALKG
In the case of B10, the binding result in experiment [19] is listed as “no binding”. Besides, the Log2 enrichment ratio in experiment [20] was -3.13 log2; in experiment [21], -2.79 log2.

B11: Index 67 (designed binder)
chain: GNRSEEVKELMRELAERVLLKFRWRADEMNKEKDKKYDKEELKRELTEKWIAFALDAIGDLFNAAELAKKLADLFKKGTGFLEERLERRKEEIEKLEEKGSRKVSYEGRREAEKIESG
On to B11, for which, in [19], the binding result is recorded as “no binding”. Also, the Log2 enrichment ratio is -3.48 log2 in experiment [20] and -3.44 log2 in [21].

B12: FINDI (designed binder)
chain: ADPKKVLDKAKDQAENRVRELKQKLEELYKEARKLDLTQEKRKKLEVATLGAVLAAHGDILNAIMQAKEEADKLKKAGLVNSQQLDELKRRLEELKEEALRKASDYGNEFHLKRRY
notes: also called αBFL1
In the case of B12, the Kd in experiment [1] stood at 0.91 nM; in experiment [2], 321 nM; in [3], 900 nM; in experiment [4], 1700 nM; in [5], 31000 nM; in experiment [6] it was 7400 nM. Also, the Specificity in experiment [7] is 350 fold.

B13: 10-CDP01 (designed binder)
chain: ADPKKVLDKAKDQAENRVRELKQELERLYKEARKLDLTQEMRRKLEWRYIAAMLKAIGDILNAIAQAENEADKLKKAGLVNSQQLDELRRRLEELAKEAARKAHDYGREFQLKLEY
notes: also called B-CDP01
Consider B13, for which the Kd in [1] stood at 250 nM; in experiment [2] it was 14 nM; in [3], 16 nM; in experiment [4], 0.47 nM; in experiment [6], 900 nM. Also, the “apparent Kd (pooled screen)” value in [5] stood at 9 nM. Besides, the Specificity in experiment [8] came to 0.05 fold.

The values are drawn from US20160376333A1 (University of Washington, published 2016).
